These results are taken from patent publication US20080216185.

In this series the test system is phiC31 integrase (Streptomyces phage phiC31?). As to the kind of experiment: cell_activity. As to conditions: for activity: integration of attB plasmid.

Regarding “phiC31 attB (pB2H1-DEST derived plasmids)”, the activity (fold colonies over random integration) (114 vs 80 colonies with/without integrase, BG01v hESC) came to 1.4.
Where the note is “BG01v and SA002”, pseudo attP 9q31.2 gave an activity of 3 clones.
pseudo attP 6p11.2 (PRIM2A intron 5) had an activity (BG01v) of 5 clones.
Still for that read-out and setting: the same measure for “pseudo attP 17q23.3 (TLK2/MRC2 intergenic)”: 4 clones.
The substance pseudo attP 13q32.3 (CLYBL intron 2) showed an activity (of 51 integrase-mediated clones, BG01v and SA002) of 17 clones.
In turn, pseudo attP 21q21.1 showed an activity (BG01v) of 2 clones.
Same read-out and setting: the same measure for pseudo attP 2q35: 2 clones.
